From patent US20230045262A1 (Hoffmann-La Roche, published 2023) come the findings set out here.

The term EC50 denotes the concentration giving half of the maximal effect. Lower therefore signals a more potent agent.

Read-outs that look alike come from different tables or passages of the source.

Experiment [1] concerns the target T1, human 4-1BB on cells (activated human T cells; HeLa-hu4-1BB-NFκB-luc clone 26; Jurkat-hu4-1BB-NFκB-luc2) (human, UniProt Q07011 24-255).
T1 construct: also called CD137; cell-expressed 4-1BB
As to the kind of experiment: flow cytometry on Jurkat-hu4-1BB-NFκB-luc2 cells.

In experiment [2] the target is T1, human 4-1BB on cells (activated human T …). As to the kind of experiment: cell-based or functional assay.
The target in experiment [3] is T2, human FAP on cells (WM-266-4; NIH/3T3-huFAP clone 19) (human, UniProt Q12884 1-760).
T2 construct: transfected in NIH/3T3-huFAP clone 19
As to the kind of experiment: flow cytometry on WM-266-4 cells.

The target of experiment [4] is T1, human 4-1BB on cells (activated human T …). The experiment is described as follows: flow cytometry on activated human CD4+ T cells, PE anti-human Fc secondary. Background: In flow cytometry, cells or beads pass a laser one at a time.
Experiment [5] deals with T3, hu4-1BB-SNAP fusion on Hek293 EBNA cells (human, UniProt Q07011 24-255, labeled with the FRET donor Terbium).
T3 construct: also called hu 4-1BB (TagLite); not shown: SNAP tag
The experiment is described as follows: TagLite FRET competition on hu4-1BB-SNAP cells; competitor 0.6 nM d2-labelled 20H4.9 IgG; 4 h.

Experiment [6] has as its target T2, human FAP on cells (WM-266-4; …). As to the kind of experiment: flow cytometry on NIH/3T3-huFAP clone 19 cells.
For experiment [7], the target named is T1, human 4-1BB on cells (activated human T …). The experiment is described as follows: flow cytometry on activated human CD8+ T cells, PE anti-human Fc secondary.
For experiment [8] the target is unchanged. The experiment is described as follows: cell-based or functional assay. This is another data set of the same source.
For experiment [9] the target is unchanged. The experiment is described as follows: cell-based or functional assay. This is another data set of the same source.
Experiment [10] concerns the target T3, hu4-1BB-SNAP fusion on Hek293 EBNA cells. As to the kind of experiment: TagLite FRET competition on hu4-1BB-SNAP cells; competitor 0.6 nM d2-labelled 20H4.9 IgG; 4 h. This is another data set of the same source.

B1: 2+1 4-1BB (20H4.9)/CEA(A5B7P) human IgG1 PGLALA, (G4S)4, hole-VH (bispecific antibody)
heavy 1: QVQLQQWGAGLLKPSETLSLTCAVYGGSFSGYYWSWIRQSPEKGLEWIGEINHGGYVTYNPSLESRVTISVDTSKNQFSLKLSSVTAADTAVYYCARDYGPGNYDWYFDLWGRGTLVTVSSASTKGPSVFPLAPSSKSTSGGTAALGCLVKDYFPEPVTVSWNSGALTSGVHTFPAVLQSSGLYSLSSVVTVPSSSLGTQTYICNVNHKPSNTKVDKKVEPKSCDKTHTCPPCPAPEAAGGPSVFLFPPKPKDTLMISRTPEVTCVVVDVSHEDPEVKFNWYVDGVEVHNAKTKPREEQYNSTYRVVSVLTVLHQDWLNGKEYKCKVSNKALGAPIEKTISKAKGQPREPQVCTLPPSRDELTKNQVSLSCAVKGFYPSDIAVEWESNGQPENNYKTTPPVLDSDGSFFLVSKLTVDKSRWQQGNVFSCSVMHEALHNHYTQKSLSLSPGGGGGSGGGGSGGGGSGGGGSEVKLVESGGGLVQPGGSLRLSCATSGFTFTDYYMNWVRQPPGKALEWLGFIGNKANGYTTEYSASVKGRFTISRDKSQSILYLQMNTLRAEDSATYYCTRDRGLRFYFDYWGQGTTLTVSS
heavy 2: not shown
light: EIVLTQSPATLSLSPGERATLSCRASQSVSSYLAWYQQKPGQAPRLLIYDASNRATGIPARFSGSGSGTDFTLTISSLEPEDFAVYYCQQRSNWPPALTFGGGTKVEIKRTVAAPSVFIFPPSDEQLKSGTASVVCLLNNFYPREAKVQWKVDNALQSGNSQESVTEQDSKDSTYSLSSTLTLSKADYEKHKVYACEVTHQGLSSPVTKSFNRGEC
notes: also called 4-1BB (20H4.9)×CEA (A5B7P) 2+1; C-terminal VH/VL fusion of the A5B7P clone
As to B1, the EC50 in experiment [1] came to 60 pM. Also, the “EC50 of Jurkat-hu4-1BB-NFκB-luc2 reporter cell line activation curves in the presence of CEA-expressing MKN45 tumor cells” value (“EC50 … of CEA-expressing MKN45 tumor cells” for short) in experiment [2] worked out at 160 pM.

B2: 4-1BB (20H4.9)/FAP (4B9) P329GLALA IgG1 2+1 (hole-VH) (bispecific antibody)
heavy 1: QVQLQQWGAGLLKPSETLSLTCAVYGGSFSGYYWSWIRQSPEKGLEWIGEINHGGYVTYNPSLESRVTISVDTSKNQFSLKLSSVTAADTAVYYCARDYGPGNYDWYFDLWGRGTLVTVSSASTKGPSVFPLAPSSKSTSGGTAALGCLVKDYFPEPVTVSWNSGALTSGVHTFPAVLQSSGLYSLSSVVTVPSSSLGTQTYICNVNHKPSNTKVDKKVEPKSCDKTHTCPPCPAPEAAGGPSVFLFPPKPKDTLMISRTPEVTCVVVDVSHEDPEVKFNWYVDGVEVHNAKTKPREEQYNSTYRVVSVLTVLHQDWLNGKEYKCKVSNKALGAPIEKTISKAKGQPREPQVCTLPPSRDELTKNQVSLSCAVKGFYPSDIAVEWESNGQPENNYKTTPPVLDSDGSFFLVSKLTVDKSRWQQGNVFSCSVMHEALHNHYTQKSLSLSPGGGGGSGGGGSGGGGSGGGGSEVQLLESGGGLVQPGGSLRLSCAASGFTFSSYAMSWVRQAPGKGLEWVSAIIGSGASTYYADSVKGRFTISRDNSKNTLYLQMNSLRAEDTAVYYCAKGWFGGFNYWGQGTLVTVSS
heavy 2: not shown
light: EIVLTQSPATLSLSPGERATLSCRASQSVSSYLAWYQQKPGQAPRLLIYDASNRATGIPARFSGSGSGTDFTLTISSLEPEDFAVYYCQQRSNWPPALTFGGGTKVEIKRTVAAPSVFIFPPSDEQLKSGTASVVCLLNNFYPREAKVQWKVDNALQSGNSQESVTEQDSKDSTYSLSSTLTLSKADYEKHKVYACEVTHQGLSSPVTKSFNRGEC
notes: also called 4-1BB (20H4.9)×FAP (4B9) 2+1; 20H4.9/4B9 2+1
For B2, a half-maximal effect in experiment [3] (EC50) was put at 700 pM. This molecule also yielded an EC50 in experiment [4] of 100 pM. Also, in experiment [5], the response was half-maximal at 1600 pM (EC50) and the “EC50 interval” value is 1200 to 2300 pM. In experiment [6], this molecule displayed an EC50 of 1700 pM. The molecule also showed an EC50 in [7] of 100 pM. In experiment [8], the “EC50 of human PBMC activation curves, % CD25+ CD4 (with NIH/3T3-huFAP cells and anti-CD3)” value is 5 pM; the “EC50 of human PBMC activation curves, % CD25+ CD8 (with NIH/3T3-huFAP cells and anti-CD3)” value was determined as 20 pM; the “EC50 of human PBMC activation curves, % proliferating CD4 (with NIH/3T3-huFAP cells and anti-CD3)” value turned out to be 4 pM; the “EC50 of human PBMC activation curves, % proliferating CD8 (with NIH/3T3-huFAP cells and anti-CD3)” value worked out at 1 pM. Besides, in experiment [9], the “EC50 of activation of the NFκB signaling pathway (luciferase, HeLa-hu4-1BB-NFκB-luc), no FAP+ cells” value was 730 pM; the “EC50 of activation of the NFκB signaling pathway (luciferase, HeLa-hu4-1BB-NFκB-luc), with 3T3-huFAP cells” value came out at 70 pM; the “EC50 of activation of the NFκB signaling pathway (luciferase, HeLa-hu4-1BB-NFκB-luc), with WM-266-4 cells” value was 80 pM.

B3: 2+1 4-1BB (20H4.9)/CEA(A5B7P) human IgG1 PGLALA, CEA with CHCL crossfab (bispecific antibody)
heavy 1: not shown
heavy 2: QVQLQQWGAGLLKPSETLSLTCAVYGGSFSGYYWSWIRQSPEKGLEWIGEINHGGYVTYNPSLESRVTISVDTSKNQFSLKLSSVTAADTAVYYCARDYGPGNYDWYFDLWGRGTLVTVSSASTKGPSVFPLAPSSKSTSGGTAALGCLVEDYFPEPVTVSWNSGALTSGVHTFPAVLQSSGLYSLSSVVTVPSSSLGTQTYICNVNHKPSNTKVDEKVEPKSCDKTHTCPPCPAPEAAGGPSVFLFPPKPKDTLMISRTPEVTCVVVDVSHEDPEVKFNWYVDGVEVHNAKTKPREEQYNSTYRVVSVLTVLHQDWLNGKEYKCKVSNKALGAPIEKTISKAKGQPREPQVCTLPPSRDELTKNQVSLSCAVKGFYPSDIAVEWESNGQPENNYKTTPPVLDSDGSFFLVSKLTVDKSRWQQGNVFSCSVMHEALHNHYTQKSLSLSPGK
light 1: not shown
light 2: QTVLSQSPAILSASPGEKVTMTCRASSSVTYIHWYQQKPGSSPKSWIYATSNLASGVPARFSGSGSGTSYSLTISRVEAEDAATYYCQHWSSKPPTFGGGTKLEIKSSASTKGPSVFPLAPSSKSTSGGTAALGCLVKDYFPEPVTVSWNSGALTSGVHTFPAVLQSSGLYSLSSVVTVPSSSLGTQTYICNVNHKPSNTKVDKKVEPKSC
notes: also called 4-1BB (20H4.9)×CEA (A5B7P) 2+1 CHCL crossfab; knob-CHCL crossfab
B3 returned a concentration giving a half-maximal response (EC50) in [1] of 60 pM. For the same molecule, in [2], the “EC50 … of CEA-expressing MKN45 tumor cells” value was determined as 90 pM.

B4: 2+1 4-1BB (20H4.9)/CEA(T84.66-LCHA) human IgG1 PGLALA, (G4S)4 hole-VH (bispecific antibody)
heavy 1: QVQLQQWGAGLLKPSETLSLTCAVYGGSFSGYYWSWIRQSPEKGLEWIGEINHGGYVTYNPSLESRVTISVDTSKNQFSLKLSSVTAADTAVYYCARDYGPGNYDWYFDLWGRGTLVTVSSASTKGPSVFPLAPSSKSTSGGTAALGCLVKDYFPEPVTVSWNSGALTSGVHTFPAVLQSSGLYSLSSVVTVPSSSLGTQTYICNVNHKPSNTKVDKKVEPKSCDKTHTCPPCPAPEAAGGPSVFLFPPKPKDTLMISRTPEVTCVVVDVSHEDPEVKFNWYVDGVEVHNAKTKPREEQYNSTYRVVSVLTVLHQDWLNGKEYKCKVSNKALGAPIEKTISKAKGQPREPQVCTLPPSRDELTKNQVSLSCAVKGFYPSDIAVEWESNGQPENNYKTTPPVLDSDGSFFLVSKLTVDKSRWQQGNVFSCSVMHEALHNHYTQKSLSLSPGGGGGSGGGGSGGGGSGGGGSQVQLVQSGAEVKKPGSSVKVSCKASGFNIKDTYMHWVRQAPGQGLEWMGRIDPANGNSKYVPKFQGRVTITADTSTSTAYMELSSLRSEDTAVYYCAPFGYYVSDYAMAYWGQGTLVTVSS
heavy 2: not shown
light: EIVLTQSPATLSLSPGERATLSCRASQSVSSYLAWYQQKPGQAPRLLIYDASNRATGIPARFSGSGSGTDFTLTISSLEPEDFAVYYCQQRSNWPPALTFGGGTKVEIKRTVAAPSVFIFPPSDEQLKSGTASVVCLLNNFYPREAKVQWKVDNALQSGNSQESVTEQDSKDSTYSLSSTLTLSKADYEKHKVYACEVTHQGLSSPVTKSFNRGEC
notes: also called 4-1BB (20H4.9)×CEA (T84.66-LCHA) 2+1
The molecule B4 showed a concentration giving a half-maximal response (EC50) in [1] of 70 pM. Moreover, the “EC50 … of CEA-expressing MKN45 tumor cells” value in experiment [2] came to 190 pM.

B5: 4-1BB (20H4.9)/FAP (4B9) P329GLALA IgG1 4+1 (hole-VH) (bispecific antibody)
heavy 1: QVQLQQWGAGLLKPSETLSLTCAVYGGSFSGYYWSWIRQSPEKGLEWIGEINHGGYVTYNPSLESRVTISVDTSKNQFSLKLSSVTAADTAVYYCARDYGPGNYDWYFDLWGRGTLVTVSSASTKGPSVFPLAPSSKSTSGGTAALGCLVKDYFPEPVTVSWNSGALTSGVHTFPAVLQSSGLYSLSSVVTVPSSSLGTQTYICNVNHKPSNTKVDKKVEPKSCDGGGGSGGGGSQVQLQQWGAGLLKPSETLSLTCAVYGGSFSGYYWSWIRQSPEKGLEWIGEINHGGYVTYNPSLESRVTISVDTSKNQFSLKLSSVTAADTAVYYCARDYGPGNYDWYFDLWGRGTLVTVSSASTKGPSVFPLAPSSKSTSGGTAALGCLVKDYFPEPVTVSWNSGALTSGVHTFPAVLQSSGLYSLSSVVTVPSSSLGTQTYICNVNHKPSNTKVDKKVEPKSCDKTHTCPPCPAPEAAGGPSVFLFPPKPKDTLMISRTPEVTCVVVDVSHEDPEVKFNWYVDGVEVHNAKTKPREEQYNSTYRVVSVLTVLHQDWLNGKEYKCKVSNKALGAPIEKTISKAKGQPREPQVCTLPPSRDELTKNQVSLSCAVKGFYPSDIAVEWESNGQPENNYKTTPPVLDSDGSFFLVSKLTVDKSRWQQGNVFSCSVMHEALHNHYTQKSLSLSPGGGGGSGGGGSGGGGSGGGGSEVQLLESGGGLVQPGGSLRLSCAASGFTFSSYAMSWVRQAPGKGLEWVSAIIGSGASTYYADSVKGRFTISRDNSKNTLYLQMNSLRAEDTAVYYCAKGWFGGFNYWGQGTLVTVSS
heavy 2: not shown
light: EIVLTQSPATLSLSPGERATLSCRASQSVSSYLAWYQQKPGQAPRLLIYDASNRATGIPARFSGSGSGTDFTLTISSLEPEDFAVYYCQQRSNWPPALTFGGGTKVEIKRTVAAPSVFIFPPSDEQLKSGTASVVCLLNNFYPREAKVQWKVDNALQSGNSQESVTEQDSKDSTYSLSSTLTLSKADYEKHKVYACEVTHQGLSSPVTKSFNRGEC
notes: also called 4-1BB (20H4.9)×FAP (4B9) 4+1; 20H4.9/4B9 4+1
With B5, the EC50 in experiment [3] is 1600 pM. Also, the EC50 in [4] came to 100 pM. This molecule yielded an EC50 in [6] of 2000 pM. Moreover, the EC50 in experiment [7] turned out to be 100 pM. Moreover, in [8], the “EC50 of human PBMC activation curves, % CD25+ CD4 (with NIH/3T3-huFAP cells and anti-CD3)” value was found to be 6 pM; the “EC50 of human PBMC activation curves, % CD25+ CD8 (with NIH/3T3-huFAP cells and anti-CD3)” value was found to be 9 pM; the “EC50 of human PBMC activation curves, % proliferating CD4 (with NIH/3T3-huFAP cells and anti-CD3)” value came out at 3 pM; the “EC50 of human PBMC activation curves, % proliferating CD8 (with NIH/3T3-huFAP cells and anti-CD3)” value came to 2 pM. In addition, in experiment [9], the “EC50 of activation of the NFκB signaling pathway (luciferase, HeLa-hu4-1BB-NFκB-luc), no FAP+ cells” value was found to be 130 pM; the “EC50 of activation of the NFκB signaling pathway (luciferase, HeLa-hu4-1BB-NFκB-luc), with 3T3-huFAP cells” value was determined as 40 pM; the “EC50 of activation of the NFκB signaling pathway (luciferase, HeLa-hu4-1BB-NFκB-luc), with WM-266-4 cells” value is 50 pM. Also, in [10], a half-maximal effect (EC50) was put at 500 pM and the “EC50 interval” value fell in the range of 300 to 700 pM.
